From the supplement of paper PMC10567573

B1: KRT13 (parent)
chain: TSSASVTTTSNASGRRTSDVRRP
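Also: lentivirally expressed fusions sorted by FACS into six bins by GFP to DsRed ratio, PSI derived from sequencing read proportions per bin multiplied by bin number.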

Variants of: B1
Experiment: protein stability index of a GFP-peptide fusion (GPS, HEK-293T) (PSI 1-6); higher = more stable
Conditions: c terminus: native
TSSASVTTTSNASGRRTSCVRRP [D19C] gave a protein stability index of 2.52. Work on TSSASVTTTSNASGRRTSIVRRP [D19I] yielded a protein stability index of 2.44. Variant TSSASVTTTSNASGRRTSMVRRP [D19M] has a protein stability index of 3.59. TSSASVTTTSNASGRRTSFVRRP [D19F] showed a protein stability index of 2.83. Variant TSSASVTTTSNASGRRTSHVRRP [D19H] has a protein stability index of 1.73. Variant TSSASVTTTSNASGRRTSLVRRP [D19L] has a protein stability index of 2.61. For TSSASVTTTSNASGRRTSKVRRP [D19K], the protein stability index was 2.25. For TSSASVTTTSNASGERTSDVRRP [R15E], the protein stability index was 2.43. For TSSASVTTTSNASGTRTSDVRRP [R15T], the protein stability index was 1.94. Work on TSSASVTTTSNASGYRTSDVRRP [R15Y] yielded a protein stability index of 2.03. TSSASVTTTSNASGLRTSDVRRP [R15L] showed a protein stability index of 2.37. For TSSASVTTTSNASGDRTSDVRRP [R15D], the protein stability index was 2.25. TSSASVTTTSNASGFRTSDVRRP [R15F] showed a protein stability index of 1.88. Variant TSSASVTTTSNASGHRTSDVRRP [R15H] has a protein stability index of 2.61. Variant TSSASVTTTSNASGCRTSDVRRP [R15C] has a protein stability index of 2.17. Variant TSSASVTTTSNASGKRTSDVRRP [R15K] has a protein stability index of 1.49. TSSASVTTTSNASGNRTSDVRRP [R15N] showed a protein stability index of 2.6. TSSASVTTTSNASGQRTSDVRRP [R15Q] gave a protein stability index of 2.53. TSSASVTTTSNASGIRTSDVRRP [R15I] showed a protein stability index of 2.36. TSSASVTTTSNASGPRTSDVRRP [R15P] showed a protein stability index of 1.73. Work on TSSASVTTTSNASGARTSDVRRP [R15A] yielded a protein stability index of 2.17. For TSSASVTTTSNARGRRTSDVRRP [S13R], the protein stability index was 1.4. With TSSASVTTTSNAEGRRTSDVRRP [S13E] the protein stability index was 1.7. In the case of TSSASVTTTSNADGRRTSDVRRP [S13D], the protein stability index is reported as 1.45. With TSSASVTTTSNAGGRRTSDVRRP [S13G] the protein stability index was 1.7. TSSASVTTTSNAVGRRTSDVRRP [S13V] gave a protein stability index of 3.04. In the case of TSSASVTTTSNAQGRRTSDVRRP [S13Q], the protein stability index is reported as 1.37. For TSSASVTTTSNAWGRRTSDVRRP [S13W], the protein stability index was 1.04. Work on TSSASVTTTSNATGRRTSDVRRP [S13T] yielded a protein stability index of 5.7. For TSSASVTTTSNAPGRRTSDVRRP [S13P], the protein stability index was 2.41. Variant TSSASVTTTSNAKGRRTSDVRRP [S13K] has a protein stability index of 1.94. For TSSASVTTTSNAAGRRTSDVRRP [S13A], the protein stability index was 2.97. For TSSASVTTTSNALGRRTSDVRRP [S13L], the protein stability index was 2.47. TSSASVTTFSNASGRRTSDVRRP [T9F] gave a protein stability index of 2.13. TSSASVTTNSNASGRRTSDVRRP [T9N] showed a protein stability index of 1.81. TSSASVTTVSNASGRRTSDVRRP [T9V] showed a protein stability index of 2.72. Work on TSSASVTTHSNASGRRTSDVRRP [T9H] yielded a protein stability index of 3.88. In the case of TSSASVTTCSNASGRRTSDVRRP [T9C], the protein stability index is reported as 1.54. TSSASVTTESNASGRRTSDVRRP [T9E] showed a protein stability index of 2.58. Variant TSSASVTTKSNASGRRTSDVRRP [T9K] has a protein stability index of 2.19. TSSASVTTPSNASGRRTSDVRRP [T9P] showed a protein stability index of 1.97. In the case of TSSASVTTDSNASGRRTSDVRRP [T9D], the protein stability index is reported as 2.05. Variant TSSASVTTGSNASGRRTSDVRRP [T9G] has a protein stability index of 1.73. In the case of TSSASVTTTSNASGRCTSDVRRP [R16C], the protein stability index is reported as 1.27. In the case of TSSASVTTTSNASGRGTSDVRRP [R16G], the protein stability index is reported as 1.04. Work on TSSASVTTTSNASGRWTSDVRRP [R16W] yielded a protein stability index of 2.87. TSSASVTTTSNASGRHTSDVRRP [R16H] showed a protein stability index of 2.37. Work on TSSASVTTTSNASGRDTSDVRRP [R16D] yielded a protein stability index of 1.66. TSSASVTTTSNASGRETSDVRRP [R16E] gave a protein stability index of 2.08. In the case of TSSASVTTTSNASGRITSDVRRP [R16I], the protein stability index is reported as 2.33. TSSASVTTTSNASGRSTSDVRRP [R16S] showed a protein stability index of 2.11. Work on TSSASVTTTSNASGRYTSDVRRP [R16Y] yielded a protein stability index of 3.97. Variant TSSASVTTTSNASGRATSDVRRP [R16A] has a protein stability index of 1.65. For TSSASVTTTSNASGRPTSDVRRP [R16P], the protein stability index was 2.52. With TSSASVTTTSNASGRTTSDVRRP [R16T] the protein stability index was 3.07. For TSSASVTTTSNASGRMTSDVRRP [R16M], the protein stability index was 2.14. TSSASVTTTSNASGRKTSDVRRP [R16K] gave a protein stability index of 1.59. With TSSASVTTTSNASGRFTSDVRRP [R16F] the protein stability index was 2.27. With TSSASVTTTSNASGRNTSDVRRP [R16N] the protein stability index was 2.05. TSSASVTTTSNASGRQTSDVRRP [R16Q] gave a protein stability index of 1.52. TSSASVTTTSNHSGRRTSDVRRP [A12H] showed a protein stability index of 3.71. For TSSASVTTTSNPSGRRTSDVRRP [A12P], the protein stability index was 2.25. Work on TSSASVTTTSNSSGRRTSDVRRP [A12S] yielded a protein stability index of 2.19. TSSASVTTTSNISGRRTSDVRRP [A12I] gave a protein stability index of 2.81. TSSASVTTTSNCSGRRTSDVRRP [A12C] showed a protein stability index of 3.03. TSSASVTTTSNDSGRRTSDVRRP [A12D] gave a protein stability index of 3.12. TSSASVTTTSNLSGRRTSDVRRP [A12L] gave a protein stability index of 2.53. Variant TSSASVTTTSNFSGRRTSDVRRP [A12F] has a protein stability index of 3.48. In the case of TSSASSTTTSNASGRRTSDVRRP [V6S], the protein stability index is reported as 1.09. Work on TSSASCTTTSNASGRRTSDVRRP [V6C] yielded a protein stability index of 4.46. TSSASNTTTSNASGRRTSDVRRP [V6N] gave a protein stability index of 2.44. TSSASDTTTSNASGRRTSDVRRP [V6D] gave a protein stability index of 2.88. For TSSASPTTTSNASGRRTSDVRRP [V6P], the protein stability index was 2.51. For TSSASTTTTSNASGRRTSDVRRP [V6T], the protein stability index was 3.08. With TSSASLTTTSNASGRRTSDVRRP [V6L] the protein stability index was 2.31. With TSSASQTTTSNASGRRTSDVRRP [V6Q] the protein stability index was 1.69. With TSSASGTTTSNASGRRTSDVRRP [V6G] the protein stability index was 2.71. In the case of TSSASATTTSNASGRRTSDVRRP [V6A], the protein stability index is reported as 2.14. Work on TSSASKTTTSNASGRRTSDVRRP [V6K] yielded a protein stability index of 2.39. For TSSASFTTTSNASGRRTSDVRRP [V6F], the protein stability index was 1.93. For TSSASRTTTSNASGRRTSDVRRP [V6R], the protein stability index was 1.97. Work on TSSASVTTTFNASGRRTSDVRRP [S10F] yielded a protein stability index of 2.96. Variant TSSASVTTTHNASGRRTSDVRRP [S10H] has a protein stability index of 2.48. In the case of TSSASVTTTPNASGRRTSDVRRP [S10P], the protein stability index is reported as 2.11. Work on TSSASVTTTENASGRRTSDVRRP [S10E] yielded a protein stability index of 2.03. Variant TSSASVTTTTNASGRRTSDVRRP [S10T] has a protein stability index of 1.6. In the case of TSSASVTTTQNASGRRTSDVRRP [S10Q], the protein stability index is reported as 2.12. TSSASVTTTYNASGRRTSDVRRP [S10Y] gave a protein stability index of 1.98. TSSASVTTTDNASGRRTSDVRRP [S10D] gave a protein stability index of 2.05. With TSSASVTTTVNASGRRTSDVRRP [S10V] the protein stability index was 2.99. In the case of TSSASVTTTCNASGRRTSDVRRP [S10C], the protein stability index is reported as 4.58. With TSSASVTTTSNASDRRTSDVRRP [G14D] the protein stability index was 1.88. Work on TSSASVTTTSNASNRRTSDVRRP [G14N] yielded a protein stability index of 2.03. In the case of TSSASVTTTSNASLRRTSDVRRP [G14L], the protein stability index is reported as 3.71. In the case of TSSASVTTTSNASERRTSDVRRP [G14E], the protein stability index is reported as 2.97. For TSSASVTTTSNASYRRTSDVRRP [G14Y], the protein stability index was 2.32. Work on TSSASVTTTSNASSRRTSDVRRP [G14S] yielded a protein stability index of 3.57.
